According to the supplement of paper PMC10724198:
± gives the standard deviation of the averaged measurements.
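Note: PSI is a weighted mean of sequencing reads over stability bins, variants kept only with over 10 reads, mCherry proximal and sfGFP distal, peptide attached via GGGS linker.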

The sequences below were run on Saccharomyces cerevisiae (assay: protein stability index of tFT-peptide fusion (C-terminal peptide) (PSI (0-1 scale)); higher = more stable (slower turnover)). Conditions: genetic background: wild type; temperature: 30 C.
PPSLPPPIHLPL was tested, and the protein stability index was 0.646 ± 0.011. With PPSLPPSPPLPP the protein stability index was 0.694 ± 0.011. PPSLRFLLPPSA gave a protein stability index of 0.685 ± 0.058. With PPSPDATPLSHI the protein stability index was 0.678 ± 0.035. PPSPHPSASTRP was tested, and the protein stability index was 0.714 ± 0.04. For PPSPLPPTPSHS, the protein stability index was 0.737 ± 0.076. Work on PPSPLPSPPPTF yielded a protein stability index of 0.718 ± 0.025. PPSPLYAFPYPL showed a protein stability index of 0.757 ± 0.0099. PPSPPDSPPPAS gave a protein stability index of 0.665 ± 0.014. PPSPPPPALSSS showed a protein stability index of 0.665 ± 0.056. In the case of PPSPPPPLPLLP, the protein stability index is reported as 0.661 ± 0.077. PPSPPPPLYPPA showed a protein stability index of 0.683 ± 0.038. For PPSPPPPPPFVP, the protein stability index was 0.717 ± 0.033. PPSPPPPPRFLP showed a protein stability index of 0.662 ± 0.041. PPSPPPPPVVVP showed a protein stability index of 0.606 ± 0.11. Work on PPSPSLRSLPRP yielded a protein stability index of 0.626 ± 0.064. PPSPSPPPPPPT showed a protein stability index of 0.648 ± 0.04. PPSRAPPAFPPL gave a protein stability index of 0.827 ± 0.2. PPSVLLPLACPP gave a protein stability index of 0.677 ± 0.008. Work on PPSVPAPPLPDP yielded a protein stability index of 0.675 ± 0.038. For PPTAPTYRQSQP, the protein stability index was 0.6754 ± 0.001. Work on PPTFPHLPHSWP yielded a protein stability index of 0.792 ± 0.018. Sequence PPTHPPPRLTPL has a protein stability index of 0.707 ± 0.081. Work on PPTIHPSPAAPH yielded a protein stability index of 0.623 ± 0.062. PPTPGPPPLRYP was tested, and the protein stability index was 0.705 ± 0.068. With PPTPLIPPLPLH the protein stability index was 0.716 ± 0.043. PPTPPLPPRLPP was tested, and the protein stability index was 0.686 ± 0.0098. For PPTPPSIPPSPP, the protein stability index was 0.624 ± 0.064. Sequence PPTPSPATSPPP has a protein stability index of 0.713 ± 0.034. Sequence PPTSPGPGSLYS has a protein stability index of 0.693 ± 0.036. For PPTSPSNALPFA, the protein stability index was 0.6666 ± 0.0032. Sequence PPVLPPPAPLPP has a protein stability index of 0.6548 ± 0.0047. For PPVRLLPCVCHF, the protein stability index was 0.708 ± 0.049. Sequence PPWLPAPFPLPD has a protein stability index of 0.695 ± 0.045. In the case of PPWPPYPRPPSS, the protein stability index is reported as 0.679 ± 0.053. For PPWTNALMILLD, the protein stability index was 0.689 ± 0.039. PPYPPTPHQTSH was tested, and the protein stability index was 0.641 ± 0.034. PPYSIPARAPHP gave a protein stability index of 0.7036 ± 0.0015. PQFSPCRLALLS gave a protein stability index of 0.616 ± 0.018. With PQIRTPIPGSFS the protein stability index was 0.743 ± 0.074. With PQNTNNPENGHC the protein stability index was 0.667 ± 0.04. PQPEAPSRPQLA gave a protein stability index of 0.746 ± 0.065. With PQRPPPALACPP the protein stability index was 0.703 ± 0.083. In the case of PQSKWLTTFRQK, the protein stability index is reported as 0.713 ± 0.095. In the case of PQSSGVSPIPPP, the protein stability index is reported as 0.77 ± 0.078. With PQSSLPPLSTSS the protein stability index was 0.686 ± 0.011. For PQTSRAPFPPPP, the protein stability index was 0.7125 ± 0.0058. PQVGWFCNRLEV was tested, and the protein stability index was 0.836 ± 0.17. Sequence PQWFPNYLRLLL has a protein stability index of 0.517 ± 0.041. For PRAGPPPPPPSP, the protein stability index was 0.734 ± 0.028. For PRAPRPHPLTNF, the protein stability index was 0.673 ± 0.051. With PRASDPPPSPYP the protein stability index was 0.766 ± 0.057. PRCPSTPQPEHH was tested, and the protein stability index was 0.739 ± 0.027. For PRELFGFNLAQP, the protein stability index was 0.692 ± 0.011. Work on PRGLGPPGWGRR yielded a protein stability index of 0.697 ± 0.022. PRGLLLPLPCHS showed a protein stability index of 0.574 ± 0.00058. PRLDPTSPPPHA showed a protein stability index of 0.675 ± 0.0094. Work on PRLFLFRSSFPP yielded a protein stability index of 0.681 ± 0.048. PRLIESYRPITS was tested, and the protein stability index was 0.715 ± 0.09. PRLPPPHRRPAP gave a protein stability index of 0.759 ± 0.022. PRLRRVCGQSLV showed a protein stability index of 0.6664 ± 0.0066. Work on PRLSLPSAPPRP yielded a protein stability index of 0.732 ± 0.08. With PRPGQPFSRFRF the protein stability index was 0.6724 ± 0.0054. PRPGSRCPIKGR was tested, and the protein stability index was 0.692 ± 0.024. PRPLFVHTSSTF showed a protein stability index of 0.7105 ± 0.0024. PRPLLLLPPATP was tested, and the protein stability index was 0.703 ± 0.029. PRPLLVPPLFKS was tested, and the protein stability index was 0.768 ± 0.031. Sequence PRPLPVCTDVHD has a protein stability index of 0.642 ± 0.019. PRPPLPPASPPL gave a protein stability index of 0.595 ± 0.044. For PRPPLPSLHLSP, the protein stability index was 0.679 ± 0.024. For PRPPPATRPGPP, the protein stability index was 0.688 ± 0.017. With PRPPPSFPPDPS the protein stability index was 0.669 ± 0.049. With PRPPSSSPHPHP the protein stability index was 0.727 ± 0.095. Sequence PRPTPPHPPITR has a protein stability index of 0.824 ± 0.027. Sequence PRPTPPHSPLLP has a protein stability index of 0.586 ± 0.02. With PRPVRAVEMLTL the protein stability index was 0.715 ± 0.029. Sequence PRSLLSPPGSVD has a protein stability index of 0.704 ± 0.026. PRSPTPPPSYSP was tested, and the protein stability index was 0.715 ± 0.11. Work on PRVCSCFLPTRP yielded a protein stability index of 0.711 ± 0.01. PRVCSLLPSGSF was tested, and the protein stability index was 0.711 ± 0.014. PRYRTPPLPPPG gave a protein stability index of 0.55 ± 0.012. In the case of PSADRQSMRCRR, the protein stability index is reported as 0.631 ± 0.007. In the case of PSALPLVPSPLP, the protein stability index is reported as 0.706 ± 0.033. For PSAPFLPSPPPV, the protein stability index was 0.661 ± 0.021. In the case of PSAWRCFSTGKV, the protein stability index is reported as 0.844 ± 0.018. For PSDLPPPTPLLA, the protein stability index was 0.63 ± 0.022. Work on PSDSRSTPPTPD yielded a protein stability index of 0.698 ± 0.033. With PSFFFFAAPLPL the protein stability index was 0.623 ± 0.028. For PSFLPLWFSRLR, the protein stability index was 0.731 ± 0.093. PSFVIQRCPMIL gave a protein stability index of 0.606 ± 0.076. Work on PSFVRTVPSPCP yielded a protein stability index of 0.658 ± 0.011. PSGCIPCNVGVS showed a protein stability index of 0.705 ± 0.099. For PSGSFPPCLGSP, the protein stability index was 0.653 ± 0.018. With PSGVKILFELKP the protein stability index was 0.645 ± 0.03. In the case of PSHPSPPPPAPP, the protein stability index is reported as 0.692 ± 0.041. With PSHRPWPPTRPP the protein stability index was 0.677 ± 0.033. With PSIKRSVKPFSP the protein stability index was 0.857 ± 0.2. With PSIPSNPPTPPR the protein stability index was 0.72 ± 0.033. Work on PSLARWLTLGYM yielded a protein stability index of 0.63 ± 0.013. PSLNPRVSFVNL gave a protein stability index of 0.685 ± 0.0073. With PSLSPSLLRFNL the protein stability index was 0.66 ± 0.015. Work on PSLSPSPRITSS yielded a protein stability index of 0.65 ± 0.077. PSMLFPRTLSPL gave a protein stability index of 0.6963 ± 0.0056. Work on PSPALPANQSFY yielded a protein stability index of 0.665 ± 0.019. Work on PSPLLPPPLPPS yielded a protein stability index of 0.678 ± 0.046. In the case of PSPLPPPPLPLS, the protein stability index is reported as 0.5739 ± 0.0048. PSPLPPVPPPPP gave a protein stability index of 0.639 ± 0.095. PSPPAPPPSPLP showed a protein stability index of 0.823 ± 0.15. Sequence PSPPPAPAPLLA has a protein stability index of 0.667 ± 0.032. PSPPPPPPPGSF was tested, and the protein stability index was 0.677 ± 0.06. Work on PSPPPPPSPSPP yielded a protein stability index of 0.626 ± 0.014. For PSPPPSQSLPPP, the protein stability index was 0.717 ± 0.043. For PSPPPVSPVVPP, the protein stability index was 0.672 ± 0.036. PSPPTSLPPTDA was tested, and the protein stability index was 0.706 ± 0.029. PSPPTYPSFPSR was tested, and the protein stability index was 0.724 ± 0.041. In the case of PSPSLYPPASPP, the protein stability index is reported as 0.654 ± 0.046. Work on PSPSVVPASSPP yielded a protein stability index of 0.669 ± 0.03. With PSPVPPSPPPSP the protein stability index was 0.512 ± 0.083. For PSPVPSLPPFLP, the protein stability index was 0.745 ± 0.13. PSRLPSPPPPPP gave a protein stability index of 0.721 ± 0.073. For PSRLSKTLLMGW, the protein stability index was 0.676 ± 0.07. Work on PSRPPPTPPLPP yielded a protein stability index of 0.629 ± 0.14. PSRSFLPTHCSL was tested, and the protein stability index was 0.666 ± 0.017. Work on PSRYHLFLPSPA yielded a protein stability index of 0.73 ± 0.055. With PSSFIRFLLCCF the protein stability index was 0.644 ± 0.04. Sequence PSSPPPPPLSPL has a protein stability index of 0.664 ± 0.017. PSSPPTPLPPRS gave a protein stability index of 0.663 ± 0.077. PSSTSPPPPPPP was tested, and the protein stability index was 0.695 ± 0.025. PSSWPPPPPPLP was tested, and the protein stability index was 0.614 ± 0.022. Work on PSSYFFPPHFLL yielded a protein stability index of 0.665 ± 0.1. In the case of PSTLKQVMNLGA, the protein stability index is reported as 0.666 ± 0.18. For PSTPPPPPGDFL, the protein stability index was 0.709 ± 0.037. For PSTSHLALSWSV, the protein stability index was 0.703 ± 0.065. For PSVAPFPLAPFS, the protein stability index was 0.71 ± 0.066. For PSVLGCIVPLIW, the protein stability index was 0.7197 ± 0.0043. Work on PSVLLAPTRRHP yielded a protein stability index of 0.678 ± 0.0016. For PSVPLAGFVCRA, the protein stability index was 0.587 ± 0.11. Sequence PSVPPRVCSFSI has a protein stability index of 0.735 ± 0.08. PSWEPLPLPAVL was tested, and the protein stability index was 0.707 ± 0.018. PSYKRGGSYPMQ was tested, and the protein stability index was 0.692 ± 0.049. PSYLALPLSTSP showed a protein stability index of 0.684 ± 0.024. PTAPPRLRLSFC showed a protein stability index of 0.667 ± 0.0089. With PTASDPLPPPPN the protein stability index was 0.867 ± 0.13. With PTATMLFLTRTG the protein stability index was 0.702 ± 0.043. PTHCTPRRRTRR gave a protein stability index of 0.676 ± 0.014. In the case of PTHSRQPPYLSL, the protein stability index is reported as 0.684 ± 0.027. With PTIGTLPTVGDD the protein stability index was 0.656 ± 0.02. For PTIPLLPPPLPP, the protein stability index was 0.622 ± 0.022. With PTKRHRKAPGTN the protein stability index was 0.629 ± 0.069. Work on PTLTTQPNVPLN yielded a protein stability index of 0.723 ± 0.038. For PTPPRRPLSFSP, the protein stability index was 0.653 ± 0.057. For PTQSDSTSTSRI, the protein stability index was 0.69 ± 0.016. Sequence PTRPPAPGPGRH has a protein stability index of 0.744 ± 0.045. For PTRPPSLPRIPP, the protein stability index was 0.669 ± 0.028. PTRQTIWPPPAS showed a protein stability index of 0.748 ± 0.026. In the case of PTSACAPACPLL, the protein stability index is reported as 0.706 ± 0.032. PTSLPLPPPSLS gave a protein stability index of 0.7333 ± 0.0056. PTSPPPPPPPPP showed a protein stability index of 0.657 ± 0.084. PVAQSCHAPSPP was tested, and the protein stability index was 0.62303 ± 0.00018. In the case of PVFGRPFCSSSV, the protein stability index is reported as 0.682 ± 0.061.
